Assay results as given in the Immune Epitope Database (IEDB).
pKd: −log10 of the molar value.

Experiments:
Conditions in all cases: source organism: Entamoeba histolytica HM-1:IMSS
[1] = target: HLA-A*02:01; experiment: IEDB peptide-MHC binding, purified MHC/direct/fluorescence; filed as Kd, often an IC50 or EC50 that approximates it; ≥ and ≤ were set here for values at or beyond the usual limits of such assays
[2] = target: HLA-A*02:06; experiment: as above
[3] = target: HLA-A*02:11; experiment: as above
[4] = target: HLA-A*02:12; experiment: as above
[5] = target: HLA-A*02:16; experiment: as above
[6] = target: HLA-A*02:19; experiment: as above
[7] = target: HLA-A*03:01; experiment: as above
[8] = target: HLA-A*23:01; experiment: as above
[9] = target: HLA-A*24:03; experiment: as above
[10] = target: HLA-A*26:01; experiment: as above
[11] = target: HLA-A*29:02; experiment: as above
[12] = target: HLA-B*15:01; experiment: as above
[13] = target: HLA-B*15:17; experiment: as above
[14] = target: HLA-B*27:03; experiment: as above
[15] = target: HLA-B*39:01; experiment: as above
[16] = target: HLA-B*40:01; experiment: as above
[17] = target: HLA-B*46:01; experiment: as above
[18] = target: HLA-B*51:01; experiment: as above
[19] = target: HLA-B*57:01; experiment: as above
[20] = target: HLA-A*01:01; experiment: IEDB peptide-MHC binding, purified MHC/competitive/fluorescence; filed as Kd, often an IC50 or EC50 that approximates it; ≥ and ≤ were set here for values at or beyond the usual limits of such assays
[21] = target: HLA-A*11:01; experiment: as above
[22] = target: HLA-A*30:01; experiment: as above
[23] = target: HLA-A*30:02; experiment: as above
[24] = target: HLA-A*66:01; experiment: as above
[25] = target: HLA-B*07:02; experiment: as above
[26] = target: HLA-B*08:01; experiment: as above
[27] = target: HLA-B*14:02; experiment: as above
[28] = target: HLA-B*27:05; experiment: as above
[29] = target: HLA-B*44:02; experiment: as above
[30] = target: HLA-B*53:01; experiment: as above
[31] = target: HLA-B*58:01; experiment: as above

IESNPLFPV
pKd [1]: ≤ 4.70 | pKd [2]: 7.47 | pKd [3]: ≤ 4.70 | pKd [4]: 6.04 | pKd [5]: ≤ 4.70 | pKd [6]: ≤ 4.70 | pKd [7]: ≤ 4.70 | pKd [8]: ≤ 4.70 | pKd [9]: ≤ 4.70 | pKd [10]: ≤ 4.70 | pKd [11]: ≤ 4.70 | pKd [12]: ≤ 4.70 | pKd [13]: ≤ 4.70 | pKd [14]: ≤ 4.70 | pKd [15]: ≤ 4.70 | pKd [16]: 7.29 | pKd [17]: ≤ 4.70 | pKd [18]: ≤ 4.70 | pKd [19]: ≤ 4.70 | pKd [20]: ≤ 5.30 | pKd [21]: ≤ 5.30 | pKd [22]: ≤ 5.30 | pKd [23]: ≤ 5.30 | pKd [24]: ≤ 5.30 | pKd [25]: ≤ 5.30 | pKd [26]: ≤ 5.30 | pKd [27]: ≤ 5.30 | pKd [28]: ≤ 5.30 | pKd [29]: ≤ 5.30 | pKd [30]: ≤ 5.30 | pKd [31]: ≤ 5.30
